Data set [1] addresses RESC1;RESC2 K311S/R402D (Trypanosoma brucei;Trypanosoma brucei, UniProt Q57XL7;Q586X1 22-473;33-492, |K311S;R402D). Briefly: analytical SEC; SEC: 20 mM HEPES pH 7.5, 2 mM MgCl2, 1 mM DTT, variable NaCl; purification at 4 C; exact binding assay salt and temperature not in material. Particulars: protein: recombinant;recombinant; tags: N-terminal 6xHis-3C (cleaved when needed);none; copies: 1;1.

The target of data set [2] is T1, RESC1;RESC2 (Trypanosoma brucei;Trypanosoma brucei, UniProt Q57XL7;Q586X1 22-473;33-492, |).
T1 sequence 1: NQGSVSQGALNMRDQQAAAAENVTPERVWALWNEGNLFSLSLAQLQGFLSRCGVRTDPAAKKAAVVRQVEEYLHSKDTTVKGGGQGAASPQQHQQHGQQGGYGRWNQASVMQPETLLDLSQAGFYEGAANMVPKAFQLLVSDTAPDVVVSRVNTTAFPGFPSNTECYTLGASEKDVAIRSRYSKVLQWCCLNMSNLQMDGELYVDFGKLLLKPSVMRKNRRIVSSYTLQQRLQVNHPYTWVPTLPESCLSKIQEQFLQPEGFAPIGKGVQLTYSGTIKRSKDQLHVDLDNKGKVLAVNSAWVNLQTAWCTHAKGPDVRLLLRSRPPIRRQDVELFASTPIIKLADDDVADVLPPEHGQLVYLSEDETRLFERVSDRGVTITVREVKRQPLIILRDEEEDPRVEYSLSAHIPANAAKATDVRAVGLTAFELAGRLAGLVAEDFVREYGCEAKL
T1 sequence 2: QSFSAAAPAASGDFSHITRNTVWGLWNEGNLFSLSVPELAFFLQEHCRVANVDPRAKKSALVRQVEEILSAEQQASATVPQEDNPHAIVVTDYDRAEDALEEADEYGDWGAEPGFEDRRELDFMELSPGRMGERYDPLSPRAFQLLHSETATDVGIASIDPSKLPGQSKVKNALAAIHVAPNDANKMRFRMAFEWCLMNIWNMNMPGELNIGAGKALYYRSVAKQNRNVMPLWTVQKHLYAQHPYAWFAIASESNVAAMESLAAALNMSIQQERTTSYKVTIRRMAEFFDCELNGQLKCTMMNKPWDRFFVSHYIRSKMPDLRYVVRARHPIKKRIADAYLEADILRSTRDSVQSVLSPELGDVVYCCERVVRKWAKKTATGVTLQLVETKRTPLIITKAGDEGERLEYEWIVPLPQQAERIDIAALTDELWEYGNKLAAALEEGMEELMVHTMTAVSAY
Described as above. The note with it: protein: recombinant;recombinant; tags: N-terminal 6xHis-3C (cleaved when needed);none; copies: 1;1.

B1: gRNA gND7(506), 5'-triphosphate (ssRNA)
RNA: GGGAUAUAAAUACGAUGUAAAUAACCUGUAGUAUAGUUAGUGUAUAUAGUGAAA
modifications: 5'-triphosphate
In the case of B1, the values for the binding result in data set [1] and in data set [2] were “no binding” and “binds”, respectively.

B2: gRNA gND7(506), 5'-hydroxyl (ssRNA)
RNA: GGGAUAUAAAUACGAUGUAAAUAACCUGUAGUAUAGUUAGUGUAUAUAGUGAAA
modifications: 5'-OH, no triphosphate
As for B2, the binding result in data set [2] was “no binding”.

Values taken from paper PMC10201420, “Structural basis for guide RNA selection by the RESC1–RESC2 complex”.
